Test results as given in US20260176352A1 (BIRD ROCK BIO, published 2026).

Legend:
[1] = biological target: T1, native full length human CB1 receptor (cannabinoid 1 receptor) (human, UniProt P21554 1-472); experiment: flow cytometry, TRex-CHO full length native human CB1 cells; Exp 2
T1 construct: whole, on cells; also called A156; Native human CB1 TRex CHO A156
Experimental: (§1) After being washed with 200 μL of FACS buffer twice, cells were incubated with secondary antibody for 30 minutes on ice. Cells were washed with 200 μL of FACS buffer twice and transferred to BD Falcon 5 mL tube and analyzed by FACS. Data analysis and measurement of binding affinity (KD) was performed using GraphPad Prism software.

[2] = biological target: T1, native full length human CB1 receptor …; experiment: flow cytometry, TRex-CHO full length native human CB1 cells; mean
Experimental: as §1

[3] = biological target: T1, native full length human CB1 receptor …; experiment: cell-based or functional assay
mouse CB1 = biological target: T2, mouse CB1 (mouse, UniProt P47746 1-473); experiment: flow cytometry on TRex-CHO mouse CB1 cells, lower panel
T2 construct: whole, on cells; also called TRexCHO Mouse CB1
T2 sequence (P47746 whole entry): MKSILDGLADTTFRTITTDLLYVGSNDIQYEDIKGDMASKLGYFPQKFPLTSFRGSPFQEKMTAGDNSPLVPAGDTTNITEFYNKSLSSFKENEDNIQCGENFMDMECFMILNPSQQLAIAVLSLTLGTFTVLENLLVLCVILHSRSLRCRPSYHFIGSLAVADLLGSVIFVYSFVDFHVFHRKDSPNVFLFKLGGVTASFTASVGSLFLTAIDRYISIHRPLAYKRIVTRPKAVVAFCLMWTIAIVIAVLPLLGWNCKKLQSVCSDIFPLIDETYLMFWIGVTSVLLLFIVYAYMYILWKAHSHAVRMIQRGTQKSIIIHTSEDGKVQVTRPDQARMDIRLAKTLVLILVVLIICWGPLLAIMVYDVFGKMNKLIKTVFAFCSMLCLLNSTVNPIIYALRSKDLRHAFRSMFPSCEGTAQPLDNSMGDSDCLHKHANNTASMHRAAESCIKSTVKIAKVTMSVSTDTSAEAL
Experimental: (§2) After being washed with 200 μl of FACS buffer twice, cells were incubated with PE conjugated anti-human secondary antibody (Southern Biotech) for 30 minutes on ice. Cells were washed with 200 μl of FACS buffer twice and transferred to BD Falcon 5 ml tube and analyzed by flow cytometry (BD FACScalibur).

human CB2 = biological target: T3, human CB2 (human, UniProt P34972 1-360); experiment: flow cytometry on TRex-CHO human CB2 cells, middle panel
T3 construct: whole, on cells; also called TRexCHO Human CB2
T3 sequence (P34972 whole entry): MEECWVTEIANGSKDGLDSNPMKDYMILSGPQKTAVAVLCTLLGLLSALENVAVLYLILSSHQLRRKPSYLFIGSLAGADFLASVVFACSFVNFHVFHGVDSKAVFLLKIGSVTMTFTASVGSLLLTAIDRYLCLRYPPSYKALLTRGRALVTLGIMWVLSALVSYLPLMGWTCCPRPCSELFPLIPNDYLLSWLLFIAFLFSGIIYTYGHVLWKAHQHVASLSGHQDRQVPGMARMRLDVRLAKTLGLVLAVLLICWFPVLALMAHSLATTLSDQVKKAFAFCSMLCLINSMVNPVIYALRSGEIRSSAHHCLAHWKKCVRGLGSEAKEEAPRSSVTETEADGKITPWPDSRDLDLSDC
Experimental: as §2

[4] = biological target: T1, native full length human CB1 receptor …; experiment: cell-based or functional assay; remark: listed apart in the source
[5] = biological target: T4, A139 iCAPS (CB1 with ICL3 native sequence replaced with BRIL) (human, UniProt P21554 99-414); experiment: ELISA, purified IgG on A139 CB1 iCAPS
T4 construct: The insert stands inside the chain in place of ICL3
T4 sequence (P21554 whole entry): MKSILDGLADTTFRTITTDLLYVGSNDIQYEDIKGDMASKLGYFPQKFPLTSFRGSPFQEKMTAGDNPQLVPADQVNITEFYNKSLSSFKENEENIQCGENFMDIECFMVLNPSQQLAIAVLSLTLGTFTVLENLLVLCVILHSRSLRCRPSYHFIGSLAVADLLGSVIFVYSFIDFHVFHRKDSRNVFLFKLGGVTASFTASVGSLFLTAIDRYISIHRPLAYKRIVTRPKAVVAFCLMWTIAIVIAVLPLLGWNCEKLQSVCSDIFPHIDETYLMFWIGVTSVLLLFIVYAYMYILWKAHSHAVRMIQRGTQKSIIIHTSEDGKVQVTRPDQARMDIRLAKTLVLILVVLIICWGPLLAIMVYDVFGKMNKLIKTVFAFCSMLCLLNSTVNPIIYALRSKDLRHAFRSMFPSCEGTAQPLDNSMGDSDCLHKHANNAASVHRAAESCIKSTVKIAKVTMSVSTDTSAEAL
Experimental: (§3) Purified IgG was tested for binding to purified CB1 receptor (CB1 Conformation Antigen Presenting System (iCAPS)) by ELISA. Non-biotinylated antigens (e.g. empty iCAPS) were coated directly on Maxisorp plates. The primary antibodies were purified IgGs with 1:3 serial dilutions, incubated on the plate for 1 hour. After 3 rounds of washing with PBST, secondary antibodies HRP goat anti-mouse IgG (Abmart) or HRP goat anti-human IgG (Sigma), depending on the species of the IgGs were added and incubated for another hour. The plates were washed three times with PBST, then developed with TMB (Biopanda). HCl was added to the plates to stop the reaction. Absorbance at 450 nm was read on Emax precision microplate reader (Molecular Devices).

[6] = biological target: T5, A138 iCAPS (CB1 with ICL3 native sequence replaced with protein 1 sequence) (human, UniProt P21554 99-414); experiment: ELISA, purified IgG on A138 CB1 iCAPS
T5 construct: The insert stands inside the chain in place of ICL3
T5 sequence (P21554 whole entry): as above
Experimental: as §3

T1 sequence (P21554 whole entry): as above

| Binder | EC50 [5] | EC50 [6] | other results |
| --- | --- | --- | --- |
| RY-LC-A10 FACS5 (IgG4 S228P) (antibody, V domains shown) VH: QVQLVQSGAEVKKPGSSVKVSCKASGYEFSYYWMNWVRQAPGQGLEWMGQIYPGDGETKYAQKFQGRVTITADKSTSTAYMELSSLRSEDTAVYYCARSHGNYLPYWGQGTLVTVSS VL: EIVLTQSPATLSLSPGERATLSCRASQSVSSRYLHWYQQKPGQAPRLLIYSTSNRASGIPARFSGSGSGTDFTLTISRLEPEDFAVYYCQQYHRSPPTFGQGTKVEIKR | – | – | Kd [1]: 12.4 nM; Kd [2]: 12.4 nM; Exp 1 IC50 (nM), cAMP antagonist assay [3]: 120 nM; Exp 2 IC50 (nM), cAMP antagonist assay [3]: 62.6 nM; Exp 3 IC50 (nM), cAMP antagonist assay [3]: 48.1 nM |
| P1C4-h2-IgG1 (antibody, also called P1C4-H2 (YE); P1C4-H2 (YE)-IgG) heavy: not shown light: EIVLTQSPATLSLSPGERATLSCRASQSVSSSYLHWYQQKPGQAPRLLIYSTSNLASGIPARFSGSGSGTDFTLTISRLEPEDFAVYYCHQYHRSPPTFGQGTKVEIKRTVAAPSVFIFPPSDEQLKSGTASVVCLLNNFYPREAKVQWKVDNALQSGNSQESVTEQDSKDSTYSLSSTLTLSKADYEKHKVYACEVTHQGLSSPVTKSFNRGEC | – | – | binding result (mouse CB1): no binding (tested: about 300 nM (last point)); binding result (human CB2): no binding (tested: about 300 nM (last point)) |
| P1C4-h4-IgG1 (antibody, also called P1C4-H4 (YENG); P1C4-H4 (YENG)-IgG) heavy: not shown light: EIVLTQSPATLSLSPGERATLSCRASQSVSSSYLHWYQQKPGQAPRLLIYSTSNLASGIPARFSGSGSGTDFTLTISRLEPEDFAVYYCHQYHRSPPTFGQGTKVEIKRTVAAPSVFIFPPSDEQLKSGTASVVCLLNNFYPREAKVQWKVDNALQSGNSQESVTEQDSKDSTYSLSSTLTLSKADYEKHKVYACEVTHQGLSSPVTKSFNRGEC | – | – | binding result (mouse CB1): no binding (tested: about 300 nM (last point)); binding result (human CB2): no binding (tested: about 300 nM (last point)) |
| PA2LR3-P6G7 (chimeric) (antibody, human IgG1, kappa, V domains shown) VH: EVQLQQSGAELVRPGSSVKISCKASGFAFSNYWMNWVKQRPGQGLEWIGQIYPGDGDTNFNGKFKGRAILTADISSNTAYMQLSSLTSEDSAVYFCARSHGNYFPYWGQGTLVTVSA VL: DIVLTQSPAIMSASLGERVTMTCTASSSVSSSYLHWYQQKPGSSPKLWIYSTSNLASGVPARFSGSGSGTSYSLTISSMEAEDAATYYCHQHHRSPPTFGAGTKLELKR | – | – | EC50, cAMP agonist functional assay [4]: > 300 nM |
| PA2LR3-P6B12 (chimeric) (antibody, human IgG1, kappa, V domains shown) VH: EVQLQQSGAELVRPGSSVKISCKASGYAFSYYWMNWVKQRPGQGLEWIGQIYPGDGDTNYNGKFKGKATLTADKSSSTAYMQLSSLTSEDSAVYFCARSHGNYFAYWGQGTLVTVSA VL: QIVLTQSPAIMSASLGERVTMTCTASSSVSSSYLHWYQQKPGSSPKLWIYSTSNLASGVPARFSGSGSGTSYSLTISSMEAEDAATYYCHQYHRSPLAFGAGTKLELKR | – | – | EC50, cAMP assay in the presence of CP55940 [4]: ~1000 nM |
| PA2LR3-P4B1 (chimeric) (antibody, human IgG1, kappa, V domains shown) VH: EVQLQQSGAELVRPGSSVKISCKASGFAFSNYWMNWVKQRPGQGLEWIGQIYPGDGDTNFNGKFKGRAILTADISSNTAYMQLSSLTSEDSAVYFCARSHGNYFPYWGQGTLVTVSA VL: QIVLTQSPAIMSASLGERVTMTCTASSSVSSSYLHWYQQKPGSSPKLWIYSTSNLASGVPARFSGSGSGTSYSLTISSMEAEDAATYYCHQYHRSPLTFGAGTKLELKR | 1.41 nM | 1.28 nM | EC50, cAMP agonist functional assay [4]: > 300 nM |
| PA2LR3-P3B10 (chimeric) (antibody, V domains shown) VH: EVQLQQSGAELVRPGSSVKISCKASGYAFSYYWMNWVKQRPGQGLEWIGQIYPGDGDTNYNGKFKGKATLTADKSSSTAYMQLSSLTSEDSAVYFCARSHGNYFPYWGQGTLVTVSA VL: DIVITQSPAIVSASLGERVTMTCTASSSVSSSYLHWYQQKPGSSPKLWIYSTSNLASGVPARFSGSGSGTSYSLTISSMEAEDAATYYCQQWSSYPLTFGAGTKLEIKR | 0.78 nM | 1.4 nM | – |
| PA2LR3-P2D3 (chimeric) (antibody, human IgG1, kappa, V domains shown) VH: EVQLQQSGAELVRPGSSVKISCKASGYAFSYYWMNWVKQRPGQGLEWIGQIYPGDGDTNYNGKFKGKATLTADKSSSTAYMQLSSLTSEDSAVYFCARSHGSYFAYWGQGTLVTVSA VL: DIELAQSPASLAVSLGQRATISCRASESVDSYGNSFMHWYQQKPGQPPKLLIYLASNLESGVPARFSGSGSRADFTLTIDPVEADDAATYYCLQYASSPPTFGAGTKLEIKR | 2.6 nM | 4.9 nM | EC50, cAMP agonist functional assay [4]: > 300 nM |
| PA2LR3-P4C6 (chimeric) (antibody, V domains shown) VH: EVQLQQSGAELVRPGSSVKISCKASGYAFSYYWMNWVKQRPGQGLEWIGQIYPGDGDTNYNGKFKGKATLTADKSSSTAYMQLSSLTSEDSAVYFCARSHGNYFPYWGQGTLVTVSA VL: DIVITQSPAIVSASLGERVTMTCTASSSVSSSYLHWYQQKPGSSPKLWIYSTSNLASGVPARFSGSGSGTSYSLTISSMEAEDAATYYCQQWSSYPLTFGAGTKLEIKR | 0.4 nM | 0.4 nM | – |
| PA2LR3-P2E5 (chimeric) (antibody, V domains shown) VH: EVQLQQSGAELVRPGSSVKISCKASGYAFRDYWMNWVKQRPGQGLEWIGQIYPGDGATNYIGKFKGKATLTADKSSSTAYMQLSSLTSEDSAVYFCARSHGNYFPYWGHGTLVTVSA VL: QIVLTQSPAIMSASLGERVTMTCTASSSVSSSYLHWYQQKPGSSPKLWIYSTSNLASGVPARFSGSGSGTSYSLTISSMEAEDAATYYCQQWSSYPLTFGAGTKLELKR | 3.2 nM | 10 nM | – |
| PA2LR3-P1G6 (chimeric) (antibody, V domains shown) VH: EVQLQQSGAELVRPGSSVKISCKASGYAFSYYWMNWVKQRPGQGLEWIGQIYPGDGDTNYNGKFKGKATLTVDKSSSTAYMQLSSLTSEDSAVYFCARSHGNYFAYWGQGTLVTVSA VL: DIVLSQSPAIMSASLGERVTMTCTASSSVSSSYLHWYQQKPGSSPKLWIYSTSNLASGVPARFSGSGSGTSYSLTISRMEAEDAATYYCQQWSSYPLTFGAGTKLELKR | 35 nM | 81 nM | – |
| PA2LR3-P4G10 (chimeric) (antibody, V domains shown) VH: EVQLQQFGAELVRPGSSVKISCKASGYAFSYYWMNWVKQRPGQGLEWIGQIYPGDGDTNYNGKFKGKATLTADKSSSTAYMQLSSLTSEDSAVYFCARSHGNYFAYWGQGTLVTVSA VL: DIVLTQSPAIMSASLGERVTMTCTASSSVSSSYLHWYQQKPGSSPKLWIYSTSNLASGVPARFSGSGSGTSYSLTISSMEAEDAATYYCQQWSSNPLTFGAGTKLELKR | 1.35 nM | 1.19 nM | – |
| PA2LR3-P2B8 (chimeric) (antibody, V domains shown) VH: EVQLQQSGAELVRPGSSVKISCKASGYAFSYYWMNWVKQRPGQGLEWIGQIYPGDGDTNYNGKFKGKATLTADKSSSTAYMQLSSLTSEDSAVYFCARSHGNYFAYWGQGTLVTVSA VL: DIVMTQSPAIMSASLGERVTMTCTASSSISSSYLHWYQQKPGSSPKLWIYSTSNLASGVPARFSGSGSGTSYSLTISSMEAEDAATYYCHQYHRSPLAFGAGTKLELKR | 1.8 nM | 6.7 nM | – |
| PA2LR3-P3B8 (chimeric) (antibody, V domains shown) VH: EVQLQQSGAELVRPGSSVKISCKASGFAFSNYWMNWVKQRPGQGLEWIGQIYPGDGDTNFNGKFKGRAILTADISSNTAYMQLSSLTSEDSAVYFCARSHGNYFPYWGQGTLVTVSA VL: DIVMTQSPAIMSASLGERVTMTCTASSSVSSSYLHWYQQKPGSSPKLWIYGTSNLASGVPVRFSGSGSGTSYSLTISSMEAEDAATYYCQQWSSYPLTFGAGTKLELKR | – | 71 nM | – |
| PA2LR3-P1H4 (chimeric) (antibody, V domains shown) VH: EVQLQQSGAELVRPGSSVKISCKASGYVFGNYWMNWVKQRPGQGLEWIGQIYPGDGDTNYNGKFKGKATLTADKSSSTAYMQLSSLTSEDSAVYFCARSHGNYFPYWGQGTLVTVSA VL: QIVLTQSPAIMSASLGERVTMTCTASSSVSSSYLHWYQQKPGSSPKLWIYSTSNLASGVPARFSGSGSGTSYSLTISSMEAEDAATYYCQQWSSYPLTFGAGTKLELKR | 33.5 nM | 21 nM | – |
| PA2R3-P1F1 (chimeric) (antibody, V domains shown) VH: EVQLQQSGAELMKPGASVKISCKATGYTFSSYWIEWVKQRPGHGLEWIGEILPGSGSTNYNEKFKGKATFTADTSSNTAYMQLSSLTSEDSAVYYCARGAWLLSYWYFDVWGAGTSVTVSS VL: DIQMMQSTSSLSASLGDRVTISCSASQGISNYLNWYQQKPDGTVKLLIYYTSSLHSGVPSRFSGSGSGTQFSLKINSLQPEDFGSYYCQHHYGTPYTFGGGTKLELKR | 1.1 nM | 1.3 nM | – |
